Measurements from article PMC8869655, “Identification of the Kinase-Substrate Recognition Interface between MYPT1 and Rho-Kinase” (Biomolecules, 2022).

Tests used:
[1] = molecular target: T1, GST-Rho-kinase-cat-L (bovine, residues 6–553) (Bos taurus, UniProt Q28021); assay: In vitro kinase assay, Rho-kinase-cat-L activity; assay type: biochemical; conditions: 1 µM inhibitory fragment, Figure S3A, N=3
T1 construct: GST-Rho-kinase-cat-L (bovine, residues 6–553); made in house; host or cells: Sf9 cells (baculovirus)

[2] = molecular target: T1, GST-Rho-kinase-cat-L (bovine, residues 6–553); assay: In vitro kinase assay, Rho-kinase-cat-L activity; assay type: biochemical; conditions: S6 rsk substrate peptide as substrate, 50 μM γ-[32P]ATP, 30 °C, inhibitor at the indicated concentrations, scintillation counting, N = 3
Description: (§1) The kinase reactions were performed in 50 μL of a reaction mixture (25 mM Tris-HCl, pH 7.5, 1 mM EDTA, 1 mM EGTA, 1 mM DTT, 5 mM MgCl2, and 50 μM γ-[^32P]ATP [1–20 GBq/mmol]), GST-Rho-kinase-cat-L or other kinases (1–10 nM), and substrates for 10–20 min at 30 °C. The reaction mixtures were applied to cation-exchange membranes and washed with 75 mM phosphoric acid three times, which was followed by scintillation counting.
Figure 4 Direct inhibition of Rho-kinase activity in vitro. (A) In vitro phosphorylation of S6 rsk substrate peptide by Rho-kinase. GST-Rho-kinase-cat-L or GST-ROCK1-cat-L activity was examined using the S6 rsk substrate peptide as a substrate in the presence of γ-[^32P]ATP. GST-MYPT1-684–868 aa-WT or -4A was added at the indicated concentrations. The reaction mixtures were applied onto cation-exchange membranes, followed by scintillation counting. N = 3. (B) Effects of the deletion of DMs on the inhibition of Rho-kinase activity in vitro. GST-Rho-kinase-cat-L activity was examined using the S6 rsk substrate peptide as a substrate in the presence of γ-[^32P]ATP. GST-MYPT1-684–868-4A with or without DMs was added at the indicated concentrations. The reaction mixtures were applied onto cation-exchange membranes, followed by scintillation counting. N = 3. The deletion of DM1 or DM2 moderately weakened the inhibitory effect and the deletion of both DM1 and DM2 completely abrogated the inhibitory effects of the MYPT1 fragment on the Rho-kinase activity. (C) Sequences of the DMs and phosphorylation sites of MYPT1. The sequences of MYPT1 683–715 aa and 836-860 aa and synthetic peptides are shown. Basic (blue), acidic (red), and aliphatic (green) amino acids within DMs are indicated. Phosphorylation sites are replaced by Ala in pseudosubstrate (PS) peptides. (D) Inhibition of Rho-kinase activity by PS2 + DM2 synthetic peptide. GST-Rho-kinase-cat-L activity was examined using the S6 rsk substrate peptide as a substrate in the presence of γ-[^32P]ATP. Synthetic peptides were added at the indicated concentrations. The reaction mixtures were applied onto cation-exchange membranes, followed by scintillation counting. N = 3. (E) Inhibition of Rho-kinase activity by PS1 + DM3 synthetic peptide. GST-Rho-kinase-cat-L activity was examined using the S6 rsk substrate peptide as a substrate in the presence of γ-[^32P]ATP. Synthetic peptides were added at the indicated concentrations. The reaction mixtures were applied onto cation-exchange membranes, followed by scintillation counting. N = 3.

[3] = tested on: GST-MRCKβ-cat-L (human, residues 1–550); assay: In vitro kinase assay, MRCKβ activity; assay type: biochemical; conditions: S6 rsk substrate peptide (40 µM) as substrate, γ-[32P]ATP, N=3, Figure S3B
Description: as §1
(§2) Supplem entary Figure S3. Inhibition of the kinase activity by the MYPT1-684-868 aa-4A […]
(§3) (A) In vitro phosphorylation of various substrates by Rho -kinase. S6 rsk substrate peptide (40 µM), GST-MYPT1 fragments (0.5 µM), GST-MLC (0.5 µM), or GST-Scrib-C (1235-1630 aa) (0.5 µM) was phosphorylated by GS T-Rho-kinase-cat-L with 1 µM GST or GST-MYPT1-684-868 aa-4A in the presence of γ-[32P]ATP. Data represent means ± SD. N=3. (B ) GS T-Rho-kinase-cat-L, GST-MRCKβ-cat-L, and GST-PKACα activities were examined using the S6 rsk substrate peptide (40 µM) as a substrate in the presence of γ-[32P]ATP and GST-MYPT1-684-868 aa-4A fragment at the indicated concentrations. The reaction mixtures were applied onto cation-exchange membranes, followed by scintillation counting. Data represent means ± SD. N=3.
(§4) (1 picture or pasted object on this page, not shown here)

NIH3T3 cells = assay: Actin stress fiber formation in NIH3T3 cells; assay type: cell-based; conditions: GST-MYPT1 fragment expressed in NIH3T3 cells, 24 h, phalloidin staining, N = 4
Description: NIH3T3 cells were seeded on polylysine-coated 13-mm coverslips at a density of 4 × 10^4 cells/well in a 6-well dish and cultured in DMEM with 10% calf serum overnight. The cells were transfected with plasmid using LIPOFECTAMINE LTX reagent (Thermo Fisher Scientific, Waltham, MA, USA), according to the manufacture’s protocol. After 24 h, the cells were incubated in fresh DMEM containing 10% calf serum for 20 min, fixed with 3.7% formaldehyde in PBS for 10 min and then treated with PBS containing 0.2% Triton X-100 for 10 min. The fixed cells were blocked with 1% bovine serum albumin for 30 min and stained with the indicated antibodies. Cover slips were mounted with Fluoromount (Diagnostic Biosystems, Pleasanton, CA, USA) and the fluorescence was examined using a confocal laser scanning microscope LSM 780 and LSM5 PASCAL built around an Axio Observer Z1 or Axiovert 200M under the control of LSM software (Carl Zeiss, Oberkochen, Germany). Images were processed using ImageJ or Photoshop (Adobe, San Jose, CA, USA).
Figure 3 Inhibition of MYPT1 phosphorylation by the Rho-kinase-binding fragment of MYPT1. (A,B) Effect of the overexpression of Rho-kinase-binding MYPT1 fragments on GFP-MYPT1 phosphorylation in COS7 cells. Full-length GFP-MYPT1 and the GST-MYPT1 Rho-kinase binding fragment were transiently expressed in COS7 cells. The cell lysates were analyzed by immunoblot analysis using anti-MYPT1-pT855 (top panel), anti-GFP (middle), or anti-GST (bottom) antibodies. The phospho-GFP-MYPT1 levels were quantified and normalized by GFP-MYPT1 levels. Data represent means ± SD. **, p < 0.01, ***, p < 0.001 as compared with the control. (C) Effect of the overexpression of Rho-kinase-binding MYPT1 fragments on stress fiber formation in NIH3T3 cells. GST-MYPT1 fragments were expressed in NIH3T3 cells. The cells were fixed in formaldehyde, and immunostained with phalloidin and anti-GST antibody. […] The percentages of cells with stress fibers throughout the cell (SF(++)), cells with stress fibers partly in the cell (SF(+)), and cells without stress fibers (SF(–)) were analyzed. […]

GST-PKACα = assay: In vitro kinase assay, PKA activity; assay type: biochemical; conditions: S6 rsk substrate peptide (40 µM) as substrate, γ-[32P]ATP, N=3, Figure S3B
Description: as §1, §2, §3, §4

T1 sequence (Q28021 6-553): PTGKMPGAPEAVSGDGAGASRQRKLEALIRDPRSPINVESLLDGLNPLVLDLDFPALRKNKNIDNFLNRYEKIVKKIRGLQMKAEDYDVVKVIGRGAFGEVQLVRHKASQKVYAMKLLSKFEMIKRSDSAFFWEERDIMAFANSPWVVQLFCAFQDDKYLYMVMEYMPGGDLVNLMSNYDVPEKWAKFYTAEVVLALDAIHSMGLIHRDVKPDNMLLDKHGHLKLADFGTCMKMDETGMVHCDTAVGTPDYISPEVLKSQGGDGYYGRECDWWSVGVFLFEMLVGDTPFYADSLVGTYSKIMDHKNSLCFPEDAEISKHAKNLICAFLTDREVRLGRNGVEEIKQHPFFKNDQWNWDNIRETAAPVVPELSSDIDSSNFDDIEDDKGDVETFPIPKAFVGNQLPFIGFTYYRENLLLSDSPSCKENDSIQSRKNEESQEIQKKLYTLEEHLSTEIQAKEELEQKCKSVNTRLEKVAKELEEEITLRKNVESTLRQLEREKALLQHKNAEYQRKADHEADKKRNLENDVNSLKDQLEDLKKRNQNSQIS

Inhibition of phosphorylation of MLC by Rho-kinase ([1]; substrate GST-MLC (0.5 µM)): inhibited
Inhibition of phosphorylation of MYPT1 by Rho-kinase ([1]; substrate GST-MYPT1 fragments (0.5 µM)): much weaker
Inhibition of phosphorylation of Scrib by Rho-kinase ([1]; substrate GST-Scrib-C (1235-1630 aa) (0.5 µM)): inhibited
Inhibition of Rho-kinase-cat-L activity (in words) [2]: inhibited the Rho-kinase-cat-L activity
Inhibition of MRCKβ activity (in words) [3]: moderately inhibited
Inhibition of PKA activity (in words) (GST-PKACα): did not inhibit
B1: MYPT1-684–868 aa-4A: GST-fused rat MYPT1 fragment 684–868 aa with the four phosphorylation sites replaced with Ala (protein)
chain: KARSRQARQSRRAAQGVTLTDLQEAEKTIGRSRSTRTREQENEEKDKEEKEKQDKEKQEEKKESEVSREDEYKQKYSRTYDETYARYRPVSTSSSSTPSSSSLSTLGSSLYASSQLNRPNSLVGITSAYSRGLTKDNEREGEKKEEEKEGEDKSQPKSIRERRRPREKRRAAGVSFWTQDSDENE
modifications: left off: GST, end not stated, kept
notes: GST-fused rat MYPT1 fragment 684–868 aa with the four phosphorylation sites replaced with Ala
Effect on actin stress fiber formation (NIH3T3 cells): reduced actin stress fibers
